# Experiments:
# [1] = biological target: T1, yPolη truncated (catalytic core) (Saccharomyces cerevisiae) (UniProt Q04049); assay: fluorescence titration (2-aminopurine); details: 2-aminopurine at position 19 of the 41-mer template (X, written as A); 23°C, buffer A (composition not in material; without BSA for fluorescence); EMSA 10 nM DNA, 10-450 nM protein, 20 min, 4.5% native gel, 40 mM Tris in running …
# T1 sequence: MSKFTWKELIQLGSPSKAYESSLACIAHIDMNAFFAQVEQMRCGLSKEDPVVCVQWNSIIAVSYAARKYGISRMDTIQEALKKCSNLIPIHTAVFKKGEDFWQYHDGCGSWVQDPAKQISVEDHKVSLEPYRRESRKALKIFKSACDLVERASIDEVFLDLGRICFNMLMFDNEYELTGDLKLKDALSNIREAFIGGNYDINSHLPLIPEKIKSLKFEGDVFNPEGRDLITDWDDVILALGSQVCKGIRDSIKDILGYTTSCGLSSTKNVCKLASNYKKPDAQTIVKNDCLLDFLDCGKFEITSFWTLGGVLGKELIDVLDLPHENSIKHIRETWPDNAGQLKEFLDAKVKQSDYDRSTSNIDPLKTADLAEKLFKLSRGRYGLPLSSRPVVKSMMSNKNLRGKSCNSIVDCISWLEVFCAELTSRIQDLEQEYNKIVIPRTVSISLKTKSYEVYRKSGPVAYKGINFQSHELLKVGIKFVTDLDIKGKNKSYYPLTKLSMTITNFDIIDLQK
# [2] = biological target: T2, yPolη full-length (Saccharomyces cerevisiae) (UniProt Q04049); assay: fluorescence titration (2-aminopurine); details: 2-aminopurine at position 19 of the 41-mer template (X, written as A); 23°C, buffer A (composition not in material; without BSA for fluorescence); EMSA 10 nM DNA, 10-450 nM protein, 20 min, 4.5% native gel, 40 mM Tris in running …
# T2 sequence: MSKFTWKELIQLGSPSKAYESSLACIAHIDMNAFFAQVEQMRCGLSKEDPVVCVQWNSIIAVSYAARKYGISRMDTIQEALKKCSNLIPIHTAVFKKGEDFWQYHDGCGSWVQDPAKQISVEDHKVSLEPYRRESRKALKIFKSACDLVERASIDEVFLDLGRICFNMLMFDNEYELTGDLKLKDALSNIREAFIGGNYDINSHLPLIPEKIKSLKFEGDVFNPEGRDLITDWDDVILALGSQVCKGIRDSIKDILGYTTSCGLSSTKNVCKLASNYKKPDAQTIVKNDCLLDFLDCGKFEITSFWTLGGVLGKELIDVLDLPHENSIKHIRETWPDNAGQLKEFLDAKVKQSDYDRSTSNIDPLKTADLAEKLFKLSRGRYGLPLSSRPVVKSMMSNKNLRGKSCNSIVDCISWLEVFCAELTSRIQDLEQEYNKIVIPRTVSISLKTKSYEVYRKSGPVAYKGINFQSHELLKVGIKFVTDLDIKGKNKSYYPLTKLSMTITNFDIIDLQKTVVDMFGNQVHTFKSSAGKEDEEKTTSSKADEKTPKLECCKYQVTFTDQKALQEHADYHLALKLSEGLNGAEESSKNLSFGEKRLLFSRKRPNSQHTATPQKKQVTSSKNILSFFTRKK
sequence,measurement,setting,value
CGCAGCCGTCCAACCAACTCA / GGACGGCATTGGATCGACACTGAGTTGGTTGGACGGCTGCG [F-8 21/41-mer],Kd,[1],13 nM
same,Kd,[2],7 nM

# — article PMC2925389, “Pre-Steady-State Kinetic Analysis of Truncated and Full-Length Saccharomyces cerevisiae DNA Polymerase Eta” (Journal of Nucleic Acids, 2010)
